# Data from the DeepSol protein solubility set.
# Assay: soluble on expression in E. coli; label from the status in PepcDB or PDB records
row,Sequence,soluble on expression in E. coli
1,MSLNKTFTVEKANRFIAENKHLVNTQYKPEEHFSAEIGWINDPNGFVYFRGEYHLFYQFYPYDSVWGPMHWGHAKSKDLVTWEHLPVALAPDQDYDRNGCFSGSAIVKDDRLWLMYTGHIEEKTGVRQVQNMAFSDDGIHFEKISQNPVATGSDLPDELIAADFRDPKLFEKDGRYYSVVAAKHKNNVGCIVLLGSDNLVEWQFESIFLKGVEHQGFMWECPDYFELDGKDCLIMSPMRYQREGDSYHNINSSLLFTGKVDWGEKCFIPESVQEIDHGQDFYAPQTLLDDQNRRILIAWMQTWGRTLPTHDQEHKWACAMTLPRILRLEDGKLRQFPVKKGQYQIQIDKDCHYHLGNDTDYLEFGYDSNVQQVYIDRSHLIQKILGEEEQDTSRRYVDIEAKELEVVLDKNSIEIFVNQGEASLTATYYLTVPAELSRIDEGHHHHHH,soluble
2,MSLNLATLQSQFAKALHYQALGEDCDIASDEFTADERIQIYRNNFIVSLSEVLSATYPMVEALLGEECFEQIARQHVLSYPLKEGNVVHYGEGFQDTIMQFSQVIAQAPYSPEVARFEWHIDLARQAQYEQSNAAELKPLALLGEVSEEQQPALVLHLKKGCRSFDSNYAVFDLFSAIQTGQFEQLNINQLQQGVISIQANGEALCHALDADVFQLLQCLEQKQSLSEIPEVLLAHLNRIMALDIVDGFTLQSIEGHHHHHH,soluble
3,MSLNPASMKYEDQEFVIFDVETTGLSSVYDTIIEIGAVKMKNGEVIDRFDKFINPHHPLSETTINLTSITDEMVQAADDEAVVIKQFMDFYGNDPLCGHNVQFDVGFVDAALKRCGYPEISQPVVDTLEVSRLLHPEQSRHTLDSLCRKYNVPLEHHHRANQDAEATGYLMFKLLDAFNDKYQEDDLGKMNDYSNGEGYKRARPTHITVLAQNQKPGLRNLYELVSLAGIKYNFKGLRTPKSELRRLHAGLLYGSACSQGEVFIAMMQKGYEEAKKKAEFYDFLEIQPPSNYSSLIADGLIADEAQLEEILTNIYKLGRELNKPVVATSDAHYIDKHEAIYRDVLLAAQRGNPNRNKQHPDLHFYTTQEMLDEFSFMGEDIAKEVVISNPNKINAMIDEGVQPVQDESFPPKIPHTAERVRKLTYDKAHELYGDPLPDNIQARLDRELDAIIGNGYGVVYLISQMLVAKSVKDGYLVGSRGSVGSSLVATMMGITEINPMPPHYRCPKCKQSEFFENGEYASGFDLPDKKCPDCQVMMVKDGQNIPFETFLGFHGDKVPDIDLNFSGDYQPVAHNFIRVMFGPNHSFKAGTVGTLADKKAIGYVKHYQDEHPEIKMNNAEVDRLAIGVTGVKATTGQHPAGIVVLPDDKDIYELTPLQYPSDDISKEWKTTHFDFHQIHDNLLKFDILGHQDPTMIRMLQDLSGIDPLTIPTDDPKVMSLFSSPEALGVTPEQINSKTGTLGLPEFGTPFVRGMLEETKPSTFAELLQISGLSHGTDVWLGNAEELINNGTCKLKNVIGCRDNIMTDLIRWGVKEEVAFSTMETVRKGKGISDENMAVLKENKNIPDWYIPSCLKIKYMFPKAHAAAYILMALRVAWFKVYYPEIYYAAYFSVRADKVDLEAMSRGKNTVVALINRIKEKGTAATKLEKDLQTYMELVNEAIERGINFKMVDINESEATTYKIVDKHTILAPFNAVDGLGDSAAKQIVAARSEAPFLSKEDLQVRGKVSQKIMDFFENNNVLEGMPDQNQLSLFEGHHHHHH,soluble
4,MSLNPKIITQYKNKKVDAASTMTDISGKNILMGFWHNWPSESGQGYQQGMFAEMPLTGIDKAYNVIAVAFMKGAGIPTFKPYNLSDEAFRAQVAELNAQGRAVLISLGGADAHIELHAGQEEALAYEIIRLVEVYGFDGLDIDLEQAAITFADNRTVLPAALRMVREHYETEGKHFIISMAPEFPYLRSAARDTPLLKEITTYFPFLKEAVAFLTSFRSGGAYLAYIEALEDLYDFIAPQYYNQGGDGIWVDELNLWVTQNNDAHKKEFLYYLTDSLIHGTRGFTKIPANRLAIGLPTNNDAAATGYVINPDDVKYALDTLQADGNPIRGLMTWSVNWDNGTPKVGEAYKWEFAKRYGYLTGGEGHHHHHH,soluble
5,MSLNPLKCAVIGVGYLGKFHAEKYAALPGCELVAVVDADPVTAAEIGDRLGVRGLTDHRALLGKVDAVSVVVPTSLHHRVARDFLEAGAHVLVEKPITVTVEEADELIRIAKEKQRVLMVGHLERFNAAVLGLDLDHHKPLFIESHRLAPFKPRANDVSVVLDLMIHDIDIILDMVDSEVERIDAKGVAVLTGDIDIANARLQFKSGCVANVTASRVSLKVERKMRMFMPNAYVSVDFQNRVLARHRKGEGEMFPGVPEILSEESVFENGDALMEEIRHFLDCIREHREPLVSGAAGRRALATAIEITNLLKVQESRSEGHHHHHH,soluble
6,MSLNPPYTIVFALYPGVTQLDFTGPLEFLSKLPHARCVLASSRGEDIRADGGIVFADIARLGAIERCDLLLVPGGLGTIEAMEDAELLAQLRRLAASADYVSSVCTGSLLLGAAGLLKGRRAACHWAWLDSLAAFGAQPCPDRVVVDGKLISGGGVTAGIDMALTLMAEIAGPQFAQTAQLTLEYAEGHHHHHH,not soluble
7,MSLNRGIGVVTLSTLLASPSALARENPPAEDEPAALEALVVTGEKRERSLKDTASSVSLTSARDIDRKQTGNASVAEVINGSPNVVYTDSVGAPIIRGQDTQGPNNGQNVFWGGTVPRATINLDGHYLNYNEMFFGATSVWDVDSIEVFRGPQTTSQGANAIAGAIIVNTKDPTFSPEAAYQAEIGSYHSRRSSIAVSGPLAQDFAGRLAVDYAGRDTFIDYDNPKFQDSGTDQDFRALNARAKLLWLPSGIPGLESKFTFSHNDNNRPTQEAATRPFDKLDHRSTTMPSWEQDTNTSILDVAYDLDNGIRLFNQAQYSLSSVHRTTGAGGEGDADIRQKNASNESRISFGEQEDRISGMGGVYYARTRTDETLHLRGLSAFDDTKKNLGVFGELNYRLSDRWTLTTGLRYQEDRIERSGNSVLAPRPLDYQKTFSAFLPKVSLAFAATPDWTVGGLVSRGYNPGGVSLNLTTRNWAYFKEETIWNYELFTRASLLDGRLLLNGNLFFMDFKDAQYNIPVVVSPGVAQSYTINAEKAHAYGMELDLDYRLRDDLRLKASAGVLRTRIDEMSGNTGYEHNEFARSPGYTLSFGPSWDVTERLNLNAQVRYLDGYYSDTANTKAYSIKAYTLTDARASYRFNDQVQLYGYVKNVFDDRSPTYMQENRGIGGIEASMTQPRTLGIGIKGTFEGHHHHHH,not soluble
8,MSLNRNNPLEVLGHVSWLWASSPLHRNWPVSLFAINVLPAIRANQYALLTRDNYPVAYCSWANLSLENEIKYLNDVTSLVAEDWTSGDRKWFIVWIAPFGDNGALYKYMRKKFPDELFRAIRVDPKTHVGKVSEFHGGKIDKQLANKIFKQYHHELITEVKNKSDFNFSLTGEGHHHHHH,soluble
9,MSLNRQSKAAVPALREISPVKQQVSEEKKEIQEDSSILVDLKGAVQKEGVYKLTASSRVRDVIELAGGLTSEADKHAINFAEKLTDEQVVYVPKQGEEISVLPRSLVSGKKETASKDQSKVHINKASLEELQHIPGIGAKRAQDIIDMRDKLGGFKALEDLRQVSGIGEKTLEKLKDDIFLDEGHHHHHH,soluble
10,MSLNSMELLIIKERRIDYDGSAIRSHWAYRNFGILGDSLVVFRGKCNVKVEEMVDIEDLRLRKEIKGDDMVHYILELFWHPDILLASSLQKLLIARLVELLWNYGIEASRRGDDIYVNGRKLSISIATVSPVSIKIHIGLNVKTVGVPPGVDAIGLEELGIDPTEFMERSAKALVEEIEKVRKDSLKVRWVTEGHHHHHH,soluble
11,MSLNSNEKMGIFQGKKMKTKIIVIVGPTAVGKTALAIEVAKRFNGEVVSGDSQQVYRGLDIGTAKASPEEQAAVPHHLIDVREITESYSAFDFVSEAKMTIEDIHSRGKLAIIAGGTGLYIQSLLEGYHLGGETPHEEILAYRASLEPYSDEELAHLVEQAGLEIPQFNRRRAMRALEIAHFGQDLENQEILYEPLIICLDDERSQLYERINHRVDLMFEAGLLDEAKWLFDHSPNVQAAKGIGYKELFPYFRGEQTFEEARESLKQATRRFAKRQLTWFRNRMQVTFYQIGESGVQDRILSQIEEFLDDEGHHHHHH,soluble
